From patent publication US20250271431A1

Experiments:
Test in all cases: RepliTope peptide microarray, Cy5 fluorescence
[1] = target: epitope sequence SEQ ID No 17 (…) (SARS-CoV-2)
[2] = target: epitope sequence SEQ ID No 37 (…) (SARS-CoV-2)
[3] = target: epitope sequence SEQ ID No 18 (…) (SARS-CoV-2)
[4] = target: epitope sequence SEQ ID No 35 (…) (SARS-CoV-2)
[5] = target: epitope sequence SEQ ID No 19 (…) (SARS-CoV-2)
[6] = target: epitope sequence SEQ ID No 15 (…) (SARS-CoV-2)

B1: hcAb B10 (clone B10), camelid full length IgG2 heavy chain only antibody (antibody)
heavy: DVQLQESGGGLVQPGGSLRLSCAASGDINTIGTMNWFRQAPGKGREFVALITSGGTTNYADSVKGRFTVSRDNAKNTVYLQMNSLKPEDTAVYHCYGADHYSDYWGQGTQVTVSSEPKTPKPQPQPQPQPNPTTESKCPKCPAPELLGGPSVFIFPPKPKDVLSISGRPEVTCVVVDVGQEDPEVSFNWYIDGAEVRTANTRPKEEQFNSTYRVVSVLPIQHQDWLTGKEFKCKVNNKALPAPIEKTISKAKGQTREPQVYALAPHREELAKDTVSVTCLVKGFYPPDINVEWQRNRQPEPEGTYATTPPQLDNDGTYFLYSKLSVGKNTWQRGETFTCVVMHETLHNHYTQKSISQS
average signal intensity (mean pixel value) [1]: 45000 | average signal intensity (mean pixel value) [2]: 13900 | average signal intensity (mean pixel value) [3]: 32800 | average signal intensity (mean pixel value) [4]: 10500 | average signal intensity (mean pixel value) [5]: 2400 | average signal intensity (mean pixel value) [6]: 23000
